# Experimental data as given in US20190016812A1.
# Target: human TNFSF9 (R&D Systems; #2295-4L-025/CF) (human) (UniProt P41273)
# Assay: MSD ELISA: TNFSF9 + 1 ug/mL antibody, binding to coated TNFRSF9
# Chain of human TNFSF9 (R&D Systems; #2295-4L-025/CF) (human) (P41273 71-254 limits assumed): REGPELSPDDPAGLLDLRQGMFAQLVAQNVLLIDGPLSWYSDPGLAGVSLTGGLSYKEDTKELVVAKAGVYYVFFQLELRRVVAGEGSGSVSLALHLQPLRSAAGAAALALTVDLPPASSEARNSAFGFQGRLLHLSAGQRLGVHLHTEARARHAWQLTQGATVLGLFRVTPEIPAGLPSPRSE
row,Substance,% inhibition of ligand receptor interaction
1,huIgG1 (antibody),0%
2,mouse IgG1 isotype control antibody,1%
3,msIgG2a (antibody),-4%
4,msIgG2b (antibody),-5%
